US20150111814A1

Molecular target: HIV-1 BaL envelope protein spike (Env) on virions (HIV-1 BaL strain)
Test: cell-based or functional assay

With “DAVEI 4 (Dual Acting Virucidal Entry Inhibitor; cyanovirin-N-(Gly4Ser)4-His6-MPER fusion)” the IC50, p24 leakage from fully infectious HIV-1 BaL (ELISA) was 200 nM.

Work on “DAVEI 8 (Dual Acting Virucidal Entry Inhibitor; cyanovirin-N-(Gly4Ser)8-His6-MPER fusion)” yielded an IC50, p24 leakage from fully infectious HIV-1 BaL (ELISA) of 395 nM.
